Data published in paper PMC12527946 (2025).

B1: VLDLR(28–797)Δ(751–779)-C-tag (VLDLR ectodomain) (receptor)
chain: not shown
B2: Clu deletion mutant CC1 (natural protein)
chain 1: DQTVSDNELQEMSNQGSKYVNKEIQNAVNGVKQIKTLIEKTNEERKTLLSNLEEAKKKKEDALNETRESETKLKELPGVCNETMMALWEECKPCLKQTCMKFYARVCRSGSGLVGRQLEEFLNQSSPFYFWMNGDRIDSLLENDRQQTHMLDVMQDHFSRASSIIDELFQDRFFTREPQDTYHYLPFSLPHRRPHFFFPKSRIVR
chain 2: SLMPFSPYEPLNFHAMMDIHFHSPAFQHPPTEFIREGDDDRTVCREIRHNSTGCLRMKDQCDKCREILSVDCSTNNPSQAKLRRELDESLQVAERLTRKYNELLKSYQWKMLNTSSLLEQLNEQFNWVSRLANLTQGEDQYYLRVTTVASHTSDSDVPSGVTEVVVKLFDSDPITVTVPVEVSRKNPKFMETVAEKALQEYRKKHREE
modifications: deletion taken as helix α7 = 244-257 as printed; exact CC1 limits only in Fig. 3a; five interchain disulfides; six N-glycans Secreted from HEK293E, glycosylated, Ca2+-bound LDLR repeats, disulfides; C-terminal C-tag left out. Deletion 751-779 taken as printed, in the numbering of the long isoform

Experiments:
Experiment in all cases: ELISA
Clu mutant DD2 = Clu mutant DD2 (human, UniProt P10909 23-227; P10909 228-449)
Clu mutant DD1 = Clu mutant DD1 (human, UniProt P10909 23-227; P10909 228-449)
Clu mutant DD3 = Clu mutant DD3 (human, UniProt P10909 23-227; P10909 228-449)
Clu mutant CC3 = Clu mutant CC3 (human, UniProt P10909 23-227; P10909 228-449)
TL4 = target: TL4
Clu mutant TL3 = Clu mutant TL3 (human, UniProt P10909 23-227; P10909 228-449)
[1] = target: VLDLR(28–797)Δ(751–779)-C-tag (VLDLR ectodomain) (human, UniProt P98155-2 28-797, Δ(751–779))

| Binder | Kd (Clu mutant DD2) | Kd (Clu mutant DD1) | Kd (Clu mutant DD3) | Kd (Clu mutant CC3) | Kd (TL4) | Kd (Clu mutant TL3) | Kd [1] |
| --- | --- | --- | --- | --- | --- | --- | --- |
| B1 | 1190 nM | 137 nM | 1180 nM | 109 nM | 256 nM | 989 nM | – |
| B2 | – | – | – | – | – | – | 662 nM |
